From patent US20240424127A1 (BRIGHT PEAK THERAPEUTICS, published 2024)
Like-named read-outs stand apart in the source and are kept apart here. Bridges are numbered along the chain shown (N, C = ends). [ ]: non-standard residue; d: D form. glutaryl‑PEG9‑azide = glutaryl-PEG9-azide group on the N-terminal amine; L6P = lysine side chain carrying PEG6-NH2 (diglycolyl-PEG-amine); hSer = N[C@@H](CCO)C(=O)O; Nle = CCCC[C@H](N)C(=O)O

T1: IL-7 receptor (IL-7Rα/γc heterodimer) on primary human T cells (human, UniProt P16871 21-459; P31785 23-369)
T1 sequence (looked up) 1: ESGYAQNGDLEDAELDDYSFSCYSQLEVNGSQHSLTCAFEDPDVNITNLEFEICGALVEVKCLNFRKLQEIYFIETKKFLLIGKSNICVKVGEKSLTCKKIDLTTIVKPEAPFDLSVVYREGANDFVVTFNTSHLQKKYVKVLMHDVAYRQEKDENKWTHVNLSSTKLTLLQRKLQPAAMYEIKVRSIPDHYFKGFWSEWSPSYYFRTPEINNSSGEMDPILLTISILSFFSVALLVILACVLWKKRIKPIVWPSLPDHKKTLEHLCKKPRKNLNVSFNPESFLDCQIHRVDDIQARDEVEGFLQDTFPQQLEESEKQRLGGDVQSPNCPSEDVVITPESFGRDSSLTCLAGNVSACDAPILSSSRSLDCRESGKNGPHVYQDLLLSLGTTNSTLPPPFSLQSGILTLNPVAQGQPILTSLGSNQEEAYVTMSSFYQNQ
T1 sequence (looked up) 2: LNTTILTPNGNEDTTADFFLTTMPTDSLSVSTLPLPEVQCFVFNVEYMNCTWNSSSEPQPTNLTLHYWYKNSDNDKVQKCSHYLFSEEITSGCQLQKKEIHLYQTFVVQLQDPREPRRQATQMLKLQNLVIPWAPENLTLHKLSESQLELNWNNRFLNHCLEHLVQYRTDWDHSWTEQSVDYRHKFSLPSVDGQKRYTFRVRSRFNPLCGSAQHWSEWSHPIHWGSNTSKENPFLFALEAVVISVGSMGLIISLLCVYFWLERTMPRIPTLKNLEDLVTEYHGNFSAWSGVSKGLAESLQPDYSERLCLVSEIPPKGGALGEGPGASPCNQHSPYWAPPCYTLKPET

T2: Recombinant Human IL-7R alpha/CD127 Fc Avi-tag Protein, CF (R&D Systems #AVI10317-050) (human, UniProt P16871 21-239)
T2 construct: Bought construct; It was loaded on streptavidin (SAX/SAX2) biosensors; not shown: Fc and Avi-tag of a bought protein
T2 sequence (looked up): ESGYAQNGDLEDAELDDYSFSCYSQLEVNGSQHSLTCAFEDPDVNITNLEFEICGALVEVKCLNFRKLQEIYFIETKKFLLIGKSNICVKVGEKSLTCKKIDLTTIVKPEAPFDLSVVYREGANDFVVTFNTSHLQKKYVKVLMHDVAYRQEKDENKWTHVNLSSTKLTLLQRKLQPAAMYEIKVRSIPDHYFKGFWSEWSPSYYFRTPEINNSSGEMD


Tests used:
[1] = target: T1, IL-7 receptor (IL-7Rα/γc heterodimer) …; test: cell-based or functional assay
[2] = target: T2, Recombinant Human IL-7R alpha/CD127 Fc …; test: BLI (Octet R8); CD127-Fc-Avi loaded on SAX2 sensor, IL-7 polypeptide as analyte
[3] = target: T2, Recombinant Human IL-7R alpha/CD127 Fc …; test: as above; remark: listed apart in the source
[4] = target: T2, Recombinant Human IL-7R alpha/CD127 Fc …; test: as above; remark: listed apart in the source
[5] = target: T2, Recombinant Human IL-7R alpha/CD127 Fc …; test: as above; remark: listed apart in the source
[6] = target: T2, Recombinant Human IL-7R alpha/CD127 Fc …; test: as above; remark: listed apart in the source
[7] = target: T2, Recombinant Human IL-7R alpha/CD127 Fc …; test: as above; remark: listed apart in the source
[8] = target: T2, Recombinant Human IL-7R alpha/CD127 Fc …; test: as above; remark: listed apart in the source

| EC50 pSTAT5, CD4 Memory [1] | EC50 pSTAT5, CD4 Naive [1] [nM] | EC50 pSTAT5, CD4 Treg [1] [nM] | EC50 pSTAT5, CD8 Memory [1] [nM] | EC50 pSTAT5, CD8 Naive [1] [nM] | Binder | other results |
| --- | --- | --- | --- | --- | --- | --- |
| 11.2 nM | 11.6 | 82.3 | 16.2 | 12.3 | CMP-111, synthetic IL-7 K81(L6P), G85N of SEQ ID NO: 8 with glutaryl-PEG9-azide at the N-terminus (ligand, disulfide 34-129, 47-141, 2-92) {glutaryl‑PEG9‑azide}-DCDIEGKDGKQYESVL[Nle]VSIDQLLDS[Nle]KEIGSNCL[hSer]NEFNFFKRHICDANKEG[Nle]FLFRAARKLRQFLK[Nle]NSTGDF[hSer]LHLLK(L6P)VSENTTILLNCTGQVKGRKPAALGEAQPTKSL[hSer]ENKSLKEQKKLNDLCFLKRLLQEIKTCWNKIL[Nle]GTKEH-NH2 | koff [2]: 0.0353 s⁻¹; kon [2]: 1.41e+06 M⁻¹ s⁻¹; Kd [3]: 16.5 nM; koff [3]: 0.0318 s⁻¹; kon [3]: 1.92e+06 M⁻¹ s⁻¹ |
| 38.1 nM | 18.9 | 32.7 | 37.4 | 20.4 | CMP-202, synthetic IL-7 variant of Example 2W (ligand, disulfide 34-129, 47-141) {glutaryl‑PEG9‑azide}-DSDIEGKDGKQYESVL[Nle]VSIDQLLDS[Nle]KEIGSNCL[hSer]NEFNFFKRHICDANKEG[Nle]FLFRAARKLRQFLK[Nle]NSTGDF[hSer]LHLLK(L6P)VSENTTILLNSTGQVKGRKPAALGEAQPTKSL[hSer]ENKSLKEQKKLNDLCFLKRLLQEIKTCWNKIL[Nle]GTKEH-NH2 | Kd [4]: 25.4 nM; koff [4]: 0.00997 s⁻¹; kon [4]: 393000 M⁻¹ s⁻¹ |
| 0.001 nM | 0.001 | 0.032 | 0.006 | 0.002 | CMP-035, recombinant human native IL-7 with His-tag (ligand, also called WT IL-7 His; recombinant IL-7 (WT)) DCDIEGKDGKQYESVLMVSIDQLLDSMKEIGSNCLNNEFNFFKRHICDANKEGMFLFRAARKLRQFLKMNSTGDFDLHLLKVSEGTTILLNCTGQVKGRKPAALGEAQPTKSLEENKSLKEQKKLNDLCFLKRLLQEIKTCWNKILMGTKEHVDHHHHHH | Kd [5]: 1.28 nM; koff [5]: 0.00698 s⁻¹; kon [5]: 5.47e+06 M⁻¹ s⁻¹ |
| 0.001 nM | 0.001 | 0.01 | 0.002 | 0.001 | CMP-117, recombinant IL-7 Q11F with His-tag (ligand) DCDIEGKDGKFYESVLMVSIDQLLDSMKEIGSNCLNNEFNFFKRHICDANKEGMFLFRAARKLRQFLKMNSTGDFDLHLLKVSEGTTILLNCTGQVKGRKPAALGEAQPTKSLEENKSLKEQKKLNDLCFLKRLLQEIKTCWNKILMGTKEHVDHHHHHH | – |
| 0.004 nM | 0.002 | 0.01 | 0.004 | 0.005 | CMP-114, CMP-108 conjugated to 30 kDa DBCO PEG at the N-terminus (ligand, disulfide 34-129, 47-141, 2-92; not fully specified (N-terminus); also: N-terminal azide conjugated to 30 kDa DBCO-PEG) DCDIEGKDGKQYESVL[Nle]VSIDQLLDS[Nle]KEIGSNCL[hSer]NEFNFFKRHICDANKEG[Nle]FLFRAARKLRQFLK[Nle]NSTGDF[hSer]LHLLKVSEGTTILLNCTGQVKGRKPAALGEAQPTKSL[hSer]ENKSLKEQKKLNDLCFLKRLLQEIKTCWNKIL[Nle]GTKEH-NH2 | – |
| 0.4 pM | 0.001 | 1.2 | 0.034 | 0.006 | CMP-107, synthetic IL-7 V15W of SEQ ID NO: 5 with glutaryl-PEG9-azide at the N-terminus (ligand, disulfide 34-129, 47-141, 2-92, also called synthetic IL-7 with V15W) {glutaryl‑PEG9‑azide}-DCDIEGKDGKQYESWL[Nle]VSIDQLLDS[Nle]KEIGSNCL[hSer]NEFNFFKRHICDANKEG[Nle]FLFRAARKLRQFLK[Nle]NSTGDF[hSer]LHLLKVSEGTTILLNCTGQVKGRKPAALGEAQPTKSL[hSer]ENKSLKEQKKLNDLCFLKRLLQEIKTCWNKIL[Nle]GTKEH-NH2 | Kd [6]: 22.5 nM; koff [6]: 0.0259 s⁻¹; kon [6]: 1.15e+06 M⁻¹ s⁻¹ |
| 0.03 nM | 0.02 | 0.14 | 0.04 | 0.03 | CMP-200, IL-7 syntein missing C2-C92 disulphide bond, N-terminus with glutaric acid and azido-PEG (ligand, disulfide 34-129, 47-141, also called CMP-200-001) {glutaryl‑PEG9‑azide}-DSDIEGKDGKQYESVL[Nle]VSIDQLLDS[Nle]KEIGSNCL[hSer]NEFNFFKRHICDANKEG[Nle]FLFRAARKLRQFLK[Nle]NSTGDF[hSer]LHLLKVSEGTTILLNSTGQVKGRKPAALGEAQPTKSL[hSer]ENKSLKEQKKLNDLCFLKRLLQEIKTCWNKIL[Nle]GTKEH-NH2 | Kd [7]: 7.18 nM; koff [7]: 0.00879 s⁻¹; kon [7]: 1.22e+06 M⁻¹ s⁻¹ |
| 0.7 nM | 0.8 | 4.45 | 1.7 | 1.2 | CMP-201, synthetic IL-7 variant of Example 2V (ligand, disulfide 34-129, 47-141) {glutaryl‑PEG9‑azide}-DSDIEGKDGKQYESVL[Nle]VSIDQLLDS[Nle]KEIGSNCL[hSer]NEFNFFKRHICDANKEG[Nle]FLFRAARKLRQFLK[Nle]NSTGDF[hSer]LHLLKVSENTTILLNSTGQVKGRKPAALGEAQPTKSL[hSer]ENKSLKEQKKLNDLCFLKRLLQEIKTCWNKIL[Nle]GTKEH-NH2 | Kd [8]: 19.2 nM; koff [8]: 0.00996 s⁻¹; kon [8]: 518000 M⁻¹ s⁻¹ |
| 0.005 nM | 0.005 | 0.015 | 0.006 | 0.006 | CMP-036, synthetic IL-7 of SEQ ID NO: 3 (no N-terminal conjugation handle) (ligand, ends and bridges not checked) DCDIEGKDGKQYESVL[Nle]VSIDQLLDS[Nle]KEIGSNCL[hSer]NEFNFFKRHICDANKEG[Nle]FLFRAARKLRQFLK[Nle]NSTGDF[hSer]LHLLKVSEGTTILLNCTGQVKGRKPAALGEAQPTKSL[hSer]ENKSLKEQKKLNDLCFLKRLLQEIKTCWNKIL[Nle]GTKEH | – |
| 0.04 nM | 0.04 | 0.18 | 0.06 | 0.05 | CMP-113, synthetic IL-7 C2A, C92A of SEQ ID NO: 10 with glutaryl-PEG9-azide at the N-terminus (ligand, ends and bridges not checked) {glutaryl‑PEG9‑azide}-DADIEGKDGKQYESVL[Nle]VSIDQLLDS[Nle]KEIGSNCL[hSer]NEFNFFKRHICDANKEG[Nle]FLFRAARKLRQFLK[Nle]NSTGDF[hSer]LHLLKVSEGTTILLNATGQVKGRKPAALGEAQPTKSL[hSer]ENKSLKEQKKLNDLCFLKRLLQEIKTCWNKIL[Nle]GTKEH | – |
